Here are results for one protein from PMC1885262, “Purification and preliminary crystallization of alanine racemase from Streptococcus pneumoniae” (BMC Microbiology, 2007).

Substrate in data set [1]: C[C@@H](N)C(=O)O
Kind of data set: alanine racemase photometric assay. The data set is classed as biochemical, Streptococcus pneumoniae. The conditions noted are these: 23°C, D- to L-alanine direction.

Substrate in data set [2]: C[C@H](N)C(=O)O
Briefly: alanine racemase photometric assay. The data set is classed as biochemical, Streptococcus pneumoniae. The conditions noted are these: 23°C, L- to D-alanine direction.

B1: AlrSP (alanine racemase from S. pneumoniae) (Streptococcus pneumoniae R6) (protein)
chain: MKASPHRPTKALIHLGAIRQNIQQMGAHIPQGTLKLAVVKANAYGHGAVAVAKAIQDDVDGFCVSNIDEAIELRQAGLSKPILILGVSEIEAVALAKEYDFTLTVAGLEWIQALLDKEVDLTGLTVHLKIDSGMGRIGFREASEVEQAQDLLQQHGVCVEGIFTHFATADEESDDYFNAQLERFKTILASMKEVPELVHASNSATTLWHVETIFNAVRMGDAMYGLNPSGAVLDLPYDLIPALTLESALVHVKTVPAGACMGYGATYQADSEQVIATVPIGYADGWTRDMQNFSVLVDGQACPIVGRVSMDQITIRLPKLYPLGTKVTLIGSNGDKEITATQVATYRVTINYEVVCLLSDRIPREYY
notes: full length, 367 residues, 39854 Da, homodimer (~80 kDa by gel filtration); pET17-alrSP (NdeI/BamHI) in E. coli BL21(DE3) pLysS; no tag mentioned
For orientation: Km means the substrate concentration at which the rate is half of its maximum. As to B1, the figures for the Km in data set [1] and in data set [2] were 2100 µM and 1920 µM, respectively.
